# From patent US20250136687A1 (SHANDONG SIMCERE BIOPHARMACEUTICAL, published 2025)
# Like-named read-outs stand apart in the source and are kept apart here.
# T1: monkey CD3ε protein (monkey, UniProt Q95LI5 22-117, limits assumed)
# T1 sequence (looked up): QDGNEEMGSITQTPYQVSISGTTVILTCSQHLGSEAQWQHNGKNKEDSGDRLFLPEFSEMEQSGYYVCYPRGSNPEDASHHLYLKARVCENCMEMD
# B1: 6-35.22-H1-L1 humanized antibody (antibody, human IgG1, kappa, V domains shown)
# VH: EVQLVESGGGVVQPGRSLRLSCAASGFTFTDYYMSWVRQAPGKGLEWVAMSRNKAKGHTIEYSSSVKGRFTISRDNSKNTLYLQMNSLRAEDTAVYYCARDTYESYDGYFDVWGQGTTVTVSS
# VL: DIVMTQSPDSLAVSLGERATINCKSSQSLFNSRSRKNYLAWYQQKPGQTPKLLIYWASIRESGVPDRFSGSGSGTDFTLTISSLQAEDVAVYYCKQSYYLYTFGQGTKLEIKR
# B2: 5-7.13-H1a-L2 humanized antibody (antibody, human IgG1, kappa, V domains shown)
# VH: EVQLVQSGAEVKKPGASVKVSCKASGYTFTSYWVHWVRQAPGQRLEWMGNINPSDGVTNYNEKFKSRVTITVDKSASTAYMELSSLRSEDTAVYYCTRDAYGQYYFDNWGQGTTVTVSS
# VL: DIVMTQTPLSLPVTPGEPASISCKSSQSLLNSRTRKNYLAWYLQKPGQSPQLLIYWASVRDSGVPDRFSGSGSGTDFTLKISRVEAEDVGVYYCIQSYYLRTFGGGTKVEIKR
# B3: 6-35.22 human-murine chimeric antibody (antibody, human IgG1, kappa, V domains shown)
# VH: EVKLVESGGGLVQPGASLSLSCAASGFTFTDYYMSWVRQPPGKALEWLAMSRNKAKGHTIEYSSSVKGRFTISRDNSQSILYLQMNALRAEDSATYYCARDTYESYDGYFDVWGAGTTVIVSS
# VL: DIVMSQSPSSLAVSAGETVTMSCKSSQSLFNSRSRKNYLAWYQQKPGQTPKLLIYWASIRESGVPDRFTGSGSGTDFTLTISSVQAEDLAVYYCKQSYYLYTFGSGTKLEIKR
# notes: Human IgG1 chimera
# B4: 7-35.6-H2-L3 humanized antibody (antibody, human IgG1, lambda, V domains shown)
# VH: EVQLVESGGGLVQPGGSLKLSCAASGFTFNTYAMNWVRQASGKGLEWVGRIRSKINNYATYYGDSVKDRFTISRDDSKNTFYLQMNSLKTEDTAVYYCVIHENYGSISWFAYWGQGTLVTVSS
# VL: ETVVTQEPSLTVSPGGTVTLTCRSSTGAVTTSNYANWVQQKPGQAFTGLIGGTNNRAPWTPARFSGSLLGGKAALTLSGVQPEDEAEYYCALWYSNHWVFGGGTKLTVLG
# B5: 8-18.1-H1-L2 humanized antibody (antibody, human IgG1, kappa, V domains shown)
# VH: EVQLVQSGAEVKKPGASVKVSCKASGYTFTMNTMHWVRQAPGQRLEWMGYINPYSGYTKYNQIFKDRVTITADKSASTAYMELSSLRSEDTAVYYCLRGGEGVWGQGTTVTVSS
# VL: DVVMTQSPLSLPVTLGQPASISCKSSQSLLDSDGKTYLNWLQQRPGQSPRRLIYLVSELGSGVPDRFSGSGSGTDFTLKISRVEAEDVGVYYCWQGTHFPRTFGGGTKVEIKR
# How the values were obtained:
# [1] = target: T2, recombinant human CD3ε-ECD His protein (human, UniProt P07766 23-126); test: ELISA, coated antigen
# T2 construct: extracellular domain; also called human CD3ε-His; CD3ε antigen protein; not shown: His tag
# T2 sequence (P07766 23-126): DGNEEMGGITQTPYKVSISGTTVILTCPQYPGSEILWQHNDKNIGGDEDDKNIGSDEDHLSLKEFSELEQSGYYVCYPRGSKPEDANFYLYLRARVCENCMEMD
# Experimental: (§1) To detect the binding activity of the humanized antibodies to CD3 protein, CD3 protein was diluted with PBS to the final concentration of […], then added to a 96-well ELISA plate at 50 μL/well, and the plate was sealed with a plastic film, and incubated overnight at 4° C. On the next day, the plate was washed 2 times with PBS, and a blocking solution [PBS+2% (v/v) BSA] was added for blocking at room temperature for 2 h. The blocking solution was poured off, and the antibody (initial concentration of 100 nM, and gradient dilution at 1:10) or a negative control antibody was added at 50 µl/well. After incubation at 37° C. for 2 h, the plate was washed 3 times with PBS. […] TMB substrate was added at 50 μl/well, and incubated at room temperature for 10 min, and then a stop solution (1.0 N HCl) was added at 50 μl/well. The OD450 nm values were read by an ELISA microplate reader (Multimode Plate Reader, EnSight, purchased from Perkin Elmer).
# human CD3ε/δ-His [2] = target: T3, human CD3ε/δ-His (human, UniProt P07766 23-126; P04234 22-105); test: ELISA, coated antigen
# T3 construct: Bought recombinant heterodimer with His tag; also called human CD3ε/δ protein
# T3 sequence (P07766 23-126, stated change not applied, form in doubt, chain 1 of 2): as the sequence (P07766 23-126) above
# T3 sequence (P04234 22-105, stated change not applied, form in doubt, chain 2 of 2): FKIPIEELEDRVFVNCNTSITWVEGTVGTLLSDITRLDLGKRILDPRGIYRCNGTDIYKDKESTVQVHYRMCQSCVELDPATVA
# Experimental: as §1
# [3] = target: T4, human CD3 on the cell surface (Jurkat cells, expanded human T cells, Jurkat-Lucia NFAT cells, human PBMC) (human, UniProt P07766 23-207; P04234 22-171; P09693 23-182); test: FACS, expanded human T cells
# T4 construct: whole, on cells; Endogenous CD3 within the TCR-CD3 complex on cells (also zeta chains and TCR); the cell type is named under assay
# T4 sequence (P07766 23-207, chain 1 of 3): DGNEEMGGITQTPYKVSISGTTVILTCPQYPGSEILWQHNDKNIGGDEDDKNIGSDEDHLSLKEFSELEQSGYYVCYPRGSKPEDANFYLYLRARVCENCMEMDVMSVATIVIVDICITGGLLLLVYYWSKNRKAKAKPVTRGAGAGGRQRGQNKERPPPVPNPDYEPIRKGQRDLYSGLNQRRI
# T4 sequence (P04234 22-171, chain 2 of 3): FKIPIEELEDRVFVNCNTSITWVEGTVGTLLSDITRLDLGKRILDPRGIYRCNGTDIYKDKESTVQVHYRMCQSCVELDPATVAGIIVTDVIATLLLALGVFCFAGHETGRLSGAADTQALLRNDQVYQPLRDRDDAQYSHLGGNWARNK
# T4 sequence (P09693 23-182, chain 3 of 3): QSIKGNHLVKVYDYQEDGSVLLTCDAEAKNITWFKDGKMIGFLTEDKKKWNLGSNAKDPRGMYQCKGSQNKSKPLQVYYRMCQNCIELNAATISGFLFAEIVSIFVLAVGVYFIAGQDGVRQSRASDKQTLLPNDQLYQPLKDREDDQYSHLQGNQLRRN
# Experimental: (§2) The binding of the chimeric antibodies to CD3 on the cell surface was analyzed by detecting the binding of the antibodies to Jurkat cells and human T cells. Suspension cells Jurkat cells were scale-up cultured in T-75 cell culture flasks to the logarithmic growth phase, the supernatant of the medium was discarded by centrifugation, and the cell pellet was washed 2 times with PBS for later use. The expanded human T cells were washed 2 times with PBS for later use. After counting the cells in the previous step, the cell pellet was resuspended with [PBS+2% (w/w) BSA] blocking solution to 4×10⁶ cells/ml, and added to a 96-well FACS reaction plate at 50 μl/well, and then the chimeric antibody to be tested was added at 50 μl/well, and incubated at 4° C. for 1 h. The cells were centrifuged and washed 3 times with a PBS buffer. […] The cells were centrifuged and washed 5 times with PBS, and FACS (FACS Canto™, purchased from BD Company) was used for detection and result analysis. Data analysis was performed by software (CellQuest) to obtain the mean fluorescence […] (MFI) of the cells. And then software (GraphPad Prism8) was used for analysis, data fitting, and EC50 value calculation. The same method was used to simultaneously detect the binding of the chimeric antibodies to endogenous CD3 negative cells MOLT4 cells.
# The expanded human PBMC cells were collected, and FACS detection and data analysis were performed according to the method in Example 5.1.
# [4] = target: T2, recombinant human CD3ε-ECD His protein; test: SPR, antibody captured on Protein A chip
# Experimental: (§3) Running buffer was HBS-EP+(10 mM HEPES, 150 mM NaCl, 3 mM EDTA, 0.05% surfactant P20) (GE Healthcare; BR-1006-69). The flow-through cell was set to 25° C. The sample block was set to 16° C. Both were pretreated with the running buffer. In each cycle, an antibody to be detected was first captured with a Protein A chip, and then a single concentration of CD3ε antigen protein was injected. The binding and dissociation processes of the antibody and the antigen protein were recorded, and finally Glycine pH 1.5 (GE Healthcare; BR-1003-54) was used to complete chip regeneration. The binding was measured by injecting different concentrations of recombinant human CD3ε proteins in a solution for 240 s with a flow rate of 30 μL/min. The concentration started from 200 nM (see the detailed results for the actual concentration in the test) and was diluted at 1:1, making a total of 5 concentrations. The dissociation phase was monitored for up to 600 s and was triggered by switching from sample solution to running buffer. The surface was regenerated by washing with a 10 mM glycine solution (pH 1.5) for 30 s at a flow rate of 30 μL/min. Bulk refractive index difference was corrected by subtracting the response obtained from the goat anti-human Fc surface, and the blank injection was subtracted at the same time (=double reference). For calculation of apparent KD value and other kinetic parameters, Langmuir 1:1 model was used.
# human CD3ε/δ-His [5] = target: T3, human CD3ε/δ-His; test: SPR, antibody captured on Protein A chip
# Experimental: as §3
# [6] = target: T5, cynomolgus monkey CD3 on the surface of expanded monkey T cells (cynomolgus monkey, UniProt Q95LI5 22-198; Q95LI8 22-171; Q95LI7 23-181); test: FACS, expanded monkey T cells
# T5 construct: whole, on cells; Endogenous CD3 within the TCR-CD3 complex on T cells expanded from cynomolgus monkey PBMC
# T5 sequence (Q95LI5 22-198, chain 1 of 3): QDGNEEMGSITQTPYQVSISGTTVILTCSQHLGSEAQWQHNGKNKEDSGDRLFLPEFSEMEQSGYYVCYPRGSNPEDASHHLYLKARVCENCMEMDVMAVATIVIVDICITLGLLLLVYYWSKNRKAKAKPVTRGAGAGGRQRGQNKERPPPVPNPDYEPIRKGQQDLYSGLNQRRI
# T5 sequence (Q95LI8 22-171, chain 2 of 3): as the sequence (P04234 22-171, chain 2 of 3) above, with I5V, N15K, I20V, S32T, D33N, I34N, T64A, S74N, V83L, H141R counted along it
# T5 sequence (Q95LI7 23-181, chain 3 of 3): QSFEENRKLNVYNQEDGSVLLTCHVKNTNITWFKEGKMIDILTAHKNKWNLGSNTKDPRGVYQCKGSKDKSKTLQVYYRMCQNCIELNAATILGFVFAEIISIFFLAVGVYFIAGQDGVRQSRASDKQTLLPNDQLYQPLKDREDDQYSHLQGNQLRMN
# Experimental: as §2
# The expanded monkey T cells were collected, and FACS detection and data analysis were performed according to the method in Example 5.1.
# monkey CD3ε/δ-His = target: T6, monkey CD3ε/δ-His (monkey, UniProt Q95LI5 22-117; Q95LI8 22-105); test: ELISA, coated antigen
# T6 construct: Bought recombinant heterodimer with His tag
# T6 sequence (Q95LI8 22-105, stated change not applied, form in doubt, chain 2 of 2, one chain of several): as the sequence (P04234 22-105, stated change not applied, form in doubt, chain 2 of 2) above, with I5V, N15K, I20V, S32T, D33N, I34N, T64A, S74N, V83L counted along it
# Experimental: as §1
# (§4) To detect the binding activity of the humanized antibodies to monkey CD3 protein, CD3 protein was diluted with PBS to the final concentration of […], and then added to a 96-well ELISA plate at 50 μl/well.
# monkey CD3ε protein = target: T1, monkey CD3ε protein; test: ELISA, coated antigen
# Experimental: as §1, §4
# [7] = target: T4, human CD3 on the cell surface (Jurkat …); test: FACS, expanded human T cells; remark: listed apart in the source
# Experimental: as §2
# [8] = target: T5, cynomolgus monkey CD3 on the surface of …; test: FACS, expanded monkey T cells; remark: listed apart in the source
# Experimental: as §2
# FACS detection and data analysis were performed on the cryopreserved monkey T cells of Example 2.4 according to the method in Example 5.1.
# [9] = target: T4, human CD3 on the cell surface (Jurkat …); test: FACS, Jurkat cells
# Experimental: as §2
# [10] = target: T4, human CD3 on the cell surface (Jurkat …); test: cell-based or functional assay
Binder,EC50 [1] [nM],max-OD450 [1] [OD450],EC50 (human CD3ε/δ-His [2]) [nM],max-OD450 (human CD3ε/δ-His [2]) [OD450],EC50 [3] [nM],max_MFI [3] [MFI],Kd [4] [nM],koff [4] [s⁻¹],kon [4] [M⁻¹ s⁻¹],Kd (human CD3ε/δ-His [5]) [nM],koff (human CD3ε/δ-His [5]) [s⁻¹],kon (human CD3ε/δ-His [5]) [M⁻¹ s⁻¹],EC50 [6] [nM],max_MFI [6] [MFI],EC50 (monkey CD3ε/δ-His) [nM],max-OD450 (monkey CD3ε/δ-His) [OD450],EC50 (monkey CD3ε protein) [nM],max-OD450 (monkey CD3ε protein) [OD450],also measured
B1,0.0337,3.1,0.53,2.93,49.7,11300,,,,,,,,,,,,,
B2,0.0206,3.16,0.19,3.01,1.52,35900,0.806,0.000214,266000,27.4,0.00983,358000,0.92,25400,0.00332,3.08,0.00263,2.99,
B3,,,,,,,,,,,,,,,,,,,"EC50 [7]: 3.62 nM; MFI_Max [7]: 8900 MFI; EC50 [8]: 4.18 nM; MFI_Max [8]: 18200 MFI; EC50 [9]: 8.3 nM; MFI_Max [9]: 26700 MFI; EC50 (nM), luciferase reporter, Jurkat-Lucia NFAT cells [10]: 0.82 nM; Maximum response value (RLU) [10]: 27000 RLU"
B4,0.0395,3.12,0.32,3.15,9.45,10000,1.29,0.000369,286000,145,0.0335,231000,7.84,10200,0.0552,3.13,0.00859,3.01,
B5,0.0363,3.11,0.22,3.16,7.05,11500,0.908,0.000249,274000,67.4,0.0317,469000,2.84,11800,0.0193,3.16,0.00475,3.1,
